Patent US20220396620A1 (Takeda / Millennium, published 2022)

Legend:
[1] = molecular target: T1, human cannabinoid receptor type 1 (CB1) (human, UniProt P21554 1-472); assay: flow cytometry, single point at 30 ug/mL antibody on CHO-huCB-1 cells
T1 construct: DiscoverX cAMP Hunter CHO-K1 CNR1 Gi cells for cAMP and pERK assays; also called huCB1; huCB-1

mouse CB-1 = molecular target: T2, mouse CB-1 (mouse, UniProt P47746 1-473); assay: flow cytometry on CHO-Mouse CB1 cells, 3-fold antibody titration from 200 nM
T2 construct: whole, on cells; also called moCB1; moCB1-CHO cells
T2 sequence (P47746 whole entry): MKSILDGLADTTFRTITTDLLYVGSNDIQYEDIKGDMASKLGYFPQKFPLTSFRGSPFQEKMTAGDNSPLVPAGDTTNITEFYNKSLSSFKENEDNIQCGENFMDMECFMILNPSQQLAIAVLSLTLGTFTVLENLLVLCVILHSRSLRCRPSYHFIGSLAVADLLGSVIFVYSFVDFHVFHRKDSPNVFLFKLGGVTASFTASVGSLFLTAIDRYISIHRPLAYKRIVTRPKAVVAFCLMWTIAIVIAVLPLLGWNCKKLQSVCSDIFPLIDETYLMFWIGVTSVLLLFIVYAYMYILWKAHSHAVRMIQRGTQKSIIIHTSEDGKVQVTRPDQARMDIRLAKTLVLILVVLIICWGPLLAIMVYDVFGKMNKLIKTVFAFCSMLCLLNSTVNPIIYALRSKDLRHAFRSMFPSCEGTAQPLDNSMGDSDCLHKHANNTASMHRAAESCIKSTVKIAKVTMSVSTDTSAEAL
Protocol: (§1) Antibody binding was tested in a fluorescence activated cell sorting (FACS)-based assay for the ability of the mouse anti-CB1 antibodies to bind parental CHO cells, human CB-1 overexpressing CHO cells and mouse CB-1 overexpressing CHO cells to obtain binding curves and EC50 values. The three cell lines were harvested, washed and dispensed at 1×10⁵ cells per well of a v-bottomed 96-well polycarbonate FACS plates (Corning, Corning, N.Y., Cat. No. 3357) in 50 μl of FACS buffer (1×PBS/2 mM EDTA and 1% FBS (ThermoFisher Scientific, Anaheim, Calif.; Cat. No. 10438-026). Serial dilutions of the antibodies were prepared at 2× concentrations starting at 200 nM and serially diluted 3-fold. The titrated antibodies were added to the plates containing the three different cell lines (parental, human and mouse CB-1 CHO cells) and incubated at 4° C. for 1 hour. The plates were washed 3× with FACS buffer. […] None of the eight functional antibodies tested were mouse cross reactive (FIG. 3).

[2] = molecular target: T1, human cannabinoid receptor type 1 (CB1); assay: FACS, titration on CB1 over-expressing CHO cells
Protocol: as §1

[3] = molecular target: T1, human cannabinoid receptor type 1 (CB1); assay: cell-based or functional assay
[4] = molecular target: T1, human cannabinoid receptor type 1 (CB1); assay: FACS on CHO-huCB-1 cells, single concentration 30 ug/mL

T1 sequence (P21554 whole entry): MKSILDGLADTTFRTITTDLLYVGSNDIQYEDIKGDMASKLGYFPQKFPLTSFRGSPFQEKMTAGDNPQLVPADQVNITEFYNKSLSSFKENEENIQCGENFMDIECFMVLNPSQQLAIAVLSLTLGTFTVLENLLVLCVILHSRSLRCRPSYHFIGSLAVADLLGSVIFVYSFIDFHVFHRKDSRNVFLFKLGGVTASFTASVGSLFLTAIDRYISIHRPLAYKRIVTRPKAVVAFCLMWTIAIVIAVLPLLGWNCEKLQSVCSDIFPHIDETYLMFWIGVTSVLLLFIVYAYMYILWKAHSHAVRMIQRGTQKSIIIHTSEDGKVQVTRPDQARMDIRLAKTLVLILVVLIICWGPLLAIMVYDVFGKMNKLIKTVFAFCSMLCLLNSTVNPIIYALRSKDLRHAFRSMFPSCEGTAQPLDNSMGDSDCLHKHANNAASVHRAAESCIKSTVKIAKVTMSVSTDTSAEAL

Row | Binder | binding result [1] | binding result (mouse CB-1) | EC50 [2] | Mean P-ERK (% inhibition) [3] | Mean cAMP (% Amgen) [3] | P-ERK IC50 (nM) Data Set 1 [3] | P-ERK IC50 (nM) Data Set 2 [3] | cAMP EC50 (nM) Data Set 1 [3] | cAMP EC50 (nM) Data Set 2 [3] | cAMP EC50 (nM) Data Set 3 [3] | also measured
1 | M5-H1 humanized anti-CB1 antibody (antibody, human IgG1, kappa, L234A L235A, V domains shown) VH: QVQLVQSGAEVVKPGASVKISCKASGYEFSYYWMNWVKQAPGQGHEWIGQIYPGDGDTNYNGKFKGKATLTADKSTSTAYMELSSLRSEDTAVYFCARGREAAWFAYWGQGTLVTVSS VL: DIQLTQSPSSLSVSVGDRATITCRASQSVSSFRYSYLHWYQQKPGKAPKLLIKYASNLESGVPSRFSGSGSGTDFTLTISSVQPEDFATYFCQHSWEIPFTFGQGTKLEIKR | binds |  |  |  |  |  |  |  |  |  | 
2 | M5-H2 humanized anti-CB1 antibody (antibody, human IgG1, kappa, L234A L235A, V domains shown) VH: QVQLVQSGAEVKKPGASVKVSCKASGYEFSYYWMNWVRQAPGQGHEWIGQIYPGDGDTNYNQKFQGRVTLTADTSTSTAYMELSSLRSEDTAVYFCARGREAAWFAYWGQGTLVTVSS VL: DIQLTQSPSSLSVSVGDRATITCRASQSVSSFRYSYLHWYQQKPGKAPKLLIKYASNLESGVPSRFSGSGSGTDFTLTISSVQPEDFATYFCQHSWEIPFTFGQGTKLEIKR | binds |  |  |  |  |  |  |  |  |  | 
3 | M8 mouse anti-huCB-1 antibody (antibody, V domains shown) VH: QVQLQQPGAELVKPGASVKLSCKASGYTFTDYWMHWVKQRPGHGLEWIGEIYPSSGRANYNGNFKRKATLTVDKSSSTAYMQLSSLTSEDSAVYYCARSRGNYLPYWGHGTPVTVSA VL: QIVLTQSPAIMSASLGERVTMTCTAGSTVSSSYLHWYQQRPGSSPKLWIYGTSNLASGVPARFSGSGSGTSYSLTISSMEAEDAATYYCHQYHRSPPTFGGGTKLEIK |  | no binding (tested: 200 nM) | 10.7 nM | 64 % inhibition | 29 % Amgen | 36 nM | 47 nM | 96 nM | 190 nM | 370 nM | 
4 | M7 mouse anti-huCB-1 antibody (antibody, V domains shown) VH: EVQLQQPGAELVRPGASVKLSCKASSYTFTRYWMNWVKQRPEEGLEWIGMIDPYDSETHYNQKFKDKAILTVDKSSSTAYMQLSTLTSEDSAVYFCARSQPRYYAMDYWGQGTSVTVSS VL: DIQMSQSPSSLSASLGERVSLTCRASQEISGFLSWLQLRPDGTIKRLIYAASSLDSGVPKRFRGSWSGSDYSLTISSLESEDFADYYCLQYSSYPYTFGGGTKLEIK |  | no binding (tested: 200 nM) | 13 nM | 95 % inhibition | 61 % Amgen | 117 nM | 170 nM | 78 nM | 120 nM | 120 nM | 
5 | M7-H3 humanized anti-CB1 antibody (antibody, human IgG1, kappa, L234A L235A, V domains shown) VH: QVQLVQSGAEVKKPGASVKVSCKASSYTFTRYWMNWVKQAPGQGLEWIGMIDPYDSETHYNQKFQGRATLTVDTSTSTVYMELSSLRSEDTAVYFCARSQPRYYAMDYWGQGTTVTVSS VL: DIQMTQSPSSLSASLGDRVTLTCRASQEISGFLSWLQLKPGKTIKRLIYAASSLDSGVPSRFSGSWSGTDYTLTISSLQPEDFADYYCLQYSSYPYTFGGGTKLEIKR | binds |  |  |  |  |  |  |  |  |  | 
6 | M7-H5 humanized anti-CB1 antibody (antibody, human IgG1, kappa, L234A L235A, V domains shown) VH: QVQLVQSGAEVVKPGASVKLSCKASSYTFTRYWMNWVKQAPGQGLEWIGMIDPYDSETHYNQKFKDKAILTVDKSTSTAYMELSTLRSEDTAVYFCARSQPRYYAMDYWGQGTSVTVSS VL: DIQMTQSPSSLSASLGDRVTLTCRASQEISGFLSWLQLRPDGTIKRLIYAASSLDSGVPSRFRGSWSGTDYTLTISSLQSEDFADYYCLQYSSYPYTFGGGTKLEIKR |  |  |  |  |  |  |  |  |  |  | binding result [4]: binds
7 | M7-H6 humanized anti-CB1 antibody (antibody, human IgG1, kappa, V domains shown) VH: QVQLVQSGAEVKKPGASVKVSCKASSYTFTRYWMNWVRQAPGQGLEWMGMIDPYDSETHYNQKFKDRVTMTRDTSTSTVYMELSSLRSEDTAVYYCARSQPRYYAMDYWGQGTSVTVSS VL: DIQMTQSPSSLSASVGDRVTITCRASQEISGFLAWFQQKPGKAPKSLIYAASSLQSGVPSRFSGSGSGTDFTLTISSLQPEDFATYYCQQYSSYPYTFGGGTKLEIKR |  |  |  |  |  |  |  |  |  |  | binding result [4]: binds
8 | M7-H2 humanized anti-CB1 antibody (antibody, human IgG1, kappa, L234A L235A) heavy: not shown light: DIQMTQSPSSLSASVGDRVTLTCRASQEISGFLSWLQLKPGKAIKRLIYAASSLDSGVPSRFSGSWSGTDYTLTISSLQPEDFADYYCLQYSSYPYTFGGGTKVEIKRTVAAPSVFIFPPSDEQLKSGTASVVCLLNNFYPREAKVQWKVDNALQSGNSQESVTEQDSKDSTYSLSSTLTLSKADYEKHKVYACEVTHQGLSSPVTKSFNRGEC | binds |  |  |  |  |  |  |  |  |  | 
9 | M5 mouse anti-huCB-1 antibody (antibody, V domains shown, The humanized M5-H1 and M5-H2 carry the CDRs of the un-numbered VL, so that one may be the functional light chain) VH: QVHLQQSGAELVRPGSSVKISCKASGYEFSYYWMNWVKQRPGQGHEWIGQIYPGDGDTNYNGKFKGKATLTADKSSSTAYMQLSSLTSEDSAVYFCARGREAAWFAYWGQGTLVTVSA VL: DIVLAQSPASLAVSLGQRATISCRASQSVSSFRYSYLHWYQQKPGQPPRLLIKYASNLESGVPARFSGSGSGTDFTLNIHPVEEEDTATYFCQHSWEIPFTFGSGTKLEIKR |  | no binding (tested: 200 nM) | 20.2 nM | 101 % inhibition | 61 % Amgen | 191 nM | 50 nM | 91 nM | 170 nM | 170 nM | 
